What was measured:
MBP-APE1L = target: T1, MBP-APE1L (Arabidopsis thaliana (Col-0), UniProt Q5XF07 1-364); assay: EMSA; no Mg2+ listed; 100 and 300 nM protein, 50 nM DNA; EMSA: 10 mM Tris-HCl pH 8.0, 150 mM NaCl, 0.05% Triton X-100, 0.1 mg/mL BSA, 10% glycerol, 10 mM DTT; on ice 10 min; 8% native gel; conditions: protein: recombinant; tags: N-terminal MBP (HRV 3C site); HisTrap purified; label: 32P (5' end of strand 1); blunt
T1 sequence: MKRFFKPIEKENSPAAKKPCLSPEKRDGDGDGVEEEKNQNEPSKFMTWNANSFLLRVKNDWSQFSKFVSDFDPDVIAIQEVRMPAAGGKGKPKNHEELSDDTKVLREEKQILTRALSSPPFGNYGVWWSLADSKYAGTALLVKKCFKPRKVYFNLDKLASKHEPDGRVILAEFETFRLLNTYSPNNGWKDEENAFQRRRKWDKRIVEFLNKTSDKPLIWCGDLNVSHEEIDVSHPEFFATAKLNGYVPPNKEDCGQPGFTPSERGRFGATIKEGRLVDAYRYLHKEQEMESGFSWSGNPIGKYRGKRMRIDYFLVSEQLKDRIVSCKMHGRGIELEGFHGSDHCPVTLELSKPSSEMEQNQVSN

MBP-ARP = target: T2, MBP-ARP (Arabidopsis thaliana (Col-0), UniProt P45951 1-536); assay: as above; conditions: protein: recombinant; tags: N-terminal MBP (HRV 3C site); HisTrap purified; label: 32P (5' end of strand 1); blunt
T2 sequence: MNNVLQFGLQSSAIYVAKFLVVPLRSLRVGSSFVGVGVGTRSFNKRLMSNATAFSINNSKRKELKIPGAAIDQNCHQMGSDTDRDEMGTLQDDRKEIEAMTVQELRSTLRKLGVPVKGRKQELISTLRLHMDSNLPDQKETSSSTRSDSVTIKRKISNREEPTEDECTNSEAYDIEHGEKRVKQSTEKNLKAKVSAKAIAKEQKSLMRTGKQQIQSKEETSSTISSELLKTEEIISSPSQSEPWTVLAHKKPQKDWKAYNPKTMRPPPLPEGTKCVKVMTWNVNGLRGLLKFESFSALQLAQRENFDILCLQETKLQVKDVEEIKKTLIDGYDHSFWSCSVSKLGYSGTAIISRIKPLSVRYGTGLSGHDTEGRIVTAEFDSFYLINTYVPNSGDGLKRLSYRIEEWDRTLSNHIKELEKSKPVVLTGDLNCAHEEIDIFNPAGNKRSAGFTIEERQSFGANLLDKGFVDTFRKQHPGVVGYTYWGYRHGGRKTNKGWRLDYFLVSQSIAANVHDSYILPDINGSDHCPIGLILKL

B1: F35[5mC]/R35 (5mC 35-mer) (dsDNA)
DNA 1: GTACTGTGTGATACTATCGAATTCAGTATGATCTG
DNA 2: CAGATCATACTGAATTCGATAGTATCACACAGTAC
modifications: 5-methylcytosine at position 18 of strand 1
binding result (MBP-APE1L): binds
binding result (MBP-ARP): binds

Source: article PMC4191409, “AP endonucleases process 5-methylcytosine excision intermediates during active DNA demethylation in Arabidopsis”
